Measurements: publication doi:10.1101/2022.08.11.503658

Legend:
Experiment in all cases: SDS-PAGE of lysate kept at 25°C versus heated to 95°C, with immunoblot
[1] = biological target: C-terminally 1xFLAG-tagged NoV GII.4 VP1 capsid protein expressed by rSA11/NSP3-2A-VP1f (human norovirus GII.4 MD145-12)
[2] = biological target: C-terminally 6xHis-tagged NoV GII.4 VP1 capsid protein expressed by rSA11/NSP3-2A-VP1His (human norovirus GII.4 MD145-12)
[3] = biological target: N-terminally 3xFLAG-tagged NoV GII.4 VP1 capsid protein expressed by rSA11/NSP3-2A-fVP1 (human norovirus GII.4 MD145-12)
[4] = biological target: Rotavirus SA11 NSP3 (wild type, from rSA11/wt) (rotavirus SA11)
[5] = biological target: Rotavirus SA11 NSP3 linked to remnant residues of the 2A peptide (rotavirus SA11 | porcine teschovirus)
[6] = biological target: Rotavirus SA11 VP6 (rotavirus SA11)

C-terminally 1xFLAG-tagged NoV GII.4 VP1 capsid protein expressed by rSA11/NSP3-2A-VP1f (natural protein)
stoichiometry N [1]: 2

C-terminally 6xHis-tagged NoV GII.4 VP1 capsid protein expressed by rSA11/NSP3-2A-VP1His (natural protein)
stoichiometry N [2]: 2

N-terminally 3xFLAG-tagged NoV GII.4 VP1 capsid protein expressed by rSA11/NSP3-2A-fVP1 (natural protein)
stoichiometry N [3]: 2

Rotavirus SA11 NSP3 (wild type, from rSA11/wt) (natural protein)
stoichiometry N [4]: 2

Rotavirus SA11 NSP3 linked to remnant residues of the 2A peptide
stoichiometry N [5]: 2

Rotavirus SA11 VP6 (natural protein)
stoichiometry N [6]: 3
